Data from patent publication US20030211992A1 (published 2003).

Columns and labels:
[1] = biological target: T1, recombinant human IGFBP-3 (human, UniProt P17936 28-291); experiment: competitive phage ELISA
T1 construct: biotinylated and held on a streptavidin chip in the ALS experiment

[2] = biological target: T2, human IGFBP-1 (human, UniProt P08833 26-259); experiment: competitive phage ELISA
T2 construct: biotinylated in the ELISA formats; amine-coupled to the chip in peptide kinetics
T2 sequence (looked up): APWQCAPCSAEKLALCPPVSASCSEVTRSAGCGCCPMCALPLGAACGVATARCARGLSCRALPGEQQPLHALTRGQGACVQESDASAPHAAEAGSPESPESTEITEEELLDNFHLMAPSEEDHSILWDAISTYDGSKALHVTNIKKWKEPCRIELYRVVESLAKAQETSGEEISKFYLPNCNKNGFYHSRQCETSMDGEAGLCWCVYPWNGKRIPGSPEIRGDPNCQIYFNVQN

T1 sequence (P17936 28-291 limits assumed): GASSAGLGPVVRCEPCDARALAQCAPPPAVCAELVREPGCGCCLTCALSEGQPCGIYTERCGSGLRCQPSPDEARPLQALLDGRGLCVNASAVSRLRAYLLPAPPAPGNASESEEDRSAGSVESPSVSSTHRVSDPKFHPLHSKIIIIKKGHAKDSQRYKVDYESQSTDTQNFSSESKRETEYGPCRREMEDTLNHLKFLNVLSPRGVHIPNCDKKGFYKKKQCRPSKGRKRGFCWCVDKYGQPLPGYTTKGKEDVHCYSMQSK

Substance | IC50 [1] | relative IC50 (mut/G1S-A70V) [1] | IC50 [2] | relative IC50 (mut/G1S-A70V) [2]
M59A IGF-1 (G1S-A70V background) on phage (from UniProt P69168 267-424) (ligand) | 0.74 nM | 1 | 13.1 nM | 1.6
T29A IGF-1 (G1S-A70V background) on phage (from UniProt P69168 267-424) (ligand) | 1.23 nM | 1.6 | 7.3 nM | 0.9
V44A IGF-1 (G1S-A70V background) on phage (from UniProt P69168 267-424) (ligand) | 1.03 nM | 1.4 | 18.8 nM | 2.3
E9A IGF-1 (G1S-A70V background) on phage (from UniProt P69168 267-424) (ligand) | 1.32 nM | 1.8 | 8.6 nM | 1
R56A IGF-1 (G1S-A70V background) on phage (from UniProt P69168 267-424) (ligand) | 1 nM | 1.3 | 13.1 nM | 1.6
P63A IGF-1 (G1S-A70V background) on phage (from UniProt P69168 267-424) (ligand) | > 100 nM | > 100 | > 1000 nM | > 100
V70A IGF-1 (single mutant of G1S-A70V) on phage (from UniProt P69168 267-424) (ligand) | 0.68 nM | 0.9 | 19.1 nM | 2.3
G30A IGF-1 (G1S-A70V background) on phage (from UniProt P69168 267-424) (ligand) | 0.58 nM | 0.8 | 7.1 nM | 0.9
Q40A IGF-1 (G1S-A70V background) on phage (from UniProt P69168 267-424) (ligand) | 0.56 nM | 0.7 | 10.2 nM | 1.2
L57A IGF-1 (G1S-A70V background) on phage (from UniProt P69168 267-424) (ligand) | 1.78 nM | 2.4 | 21.8 nM | 2.7
S34A IGF-1 (G1S-A70V background) on phage (from UniProt P69168 267-424) (ligand) | 1.65 nM | 2.2 | 9.5 nM | 1.2
D53A IGF-1 (G1S-A70V background) on phage (from UniProt P69168 267-424) (ligand) | 1.05 nM | 1.2 | 15.3 nM | 1.9
K65A IGF-1 (G1S-A70V background) on phage (from UniProt P69168 267-424) (ligand) | 0.69 nM | 0.9 | 12.4 nM | 1.5
S1G IGF-1 (single mutant of G1S-A70V) on phage (from UniProt P69168 267-424) (ligand) | 0.99 nM | 1.3 | 11.2 nM | 1.4
L54A IGF-1 (G1S-A70V background) on phage (from UniProt P69168 267-424) (ligand) | 1.83 nM | 2.4 | 23.1 nM | 2.8
P66A IGF-1 (G1S-A70V background) on phage (from UniProt P69168 267-424) (ligand) | 0.57 nM | 0.8 | 9.4 nM | 1.1
G32A IGF-1 (G1S-A70V background) on phage (from UniProt P69168 267-424) (ligand) | 0.76 nM | 1 | 10.9 nM | 1.3
R50A IGF-1 (G1S-A70V background) on phage (from UniProt P69168 267-424) (ligand) | 0.64 nM | 0.9 | 16.2 nM | 2
F49A IGF-1 (G1S-A70V background) on phage (from UniProt P69168 267-424) (ligand) | 2.72 nM | 3.6 | > 1000 nM | > 100
I43A IGF-1 (G1S-A70V background) on phage (from UniProt P69168 267-424) (ligand) | 1.17 nM | 1.6 | 31.3 nM | 3.8

Substance | IC50 [1] | relative IC50 (mut/G1S-A70V) [1] | IC50 [2] | relative IC50 (mut/G1S-A70V) [2]
R37A IGF-1 (G1S-A70V background) on phage (from UniProt P69168 267-424) (ligand) | 0.75 nM | 1 | 12.3 nM | 1.5
E3A IGF-1 (G1S-A70V background) on phage (from UniProt P69168 267-424) (ligand) | 1.05 nM | 1.4 | 278 nM | 33.9
E58A IGF-1 (G1S-A70V background) on phage (from UniProt P69168 267-424) (ligand) | 1.03 nM | 1.4 | 11.9 nM | 1.5
S51A IGF-1 (G1S-A70V background) on phage (from UniProt P69168 267-424) (ligand) | 0.65 nM | 0.9 | 13.4 nM | 1.6
L64A IGF-1 (G1S-A70V background) on phage (from UniProt P69168 267-424) (ligand) | 0.93 nM | 1.2 | 12.1 nM | 1.5
L5A IGF-1 (G1S-A70V background) on phage (from UniProt P69168 267-424) (ligand) | 1.53 nM | 2 | 55.3 nM | 6.7
S35A IGF-1 (G1S-A70V background) on phage (from UniProt P69168 267-424) (ligand) | 0.47 nM | 0.6 | 11.7 nM | 1.4
Y31A IGF-1 (G1S-A70V background) on phage (from UniProt P69168 267-424) (ligand) | 0.73 nM | 1 | 6.8 nM | 0.8
S33A IGF-1 (G1S-A70V background) on phage (from UniProt P69168 267-424) (ligand) | 1.01 nM | 1.3 | 9.1 nM | 1.1
R55A IGF-1 (G1S-A70V background) on phage (from UniProt P69168 267-424) (ligand) | 0.66 nM | 0.9 | 9 nM | 1.1
Y60A IGF-1 (G1S-A70V background) on phage (from UniProt P69168 267-424) (ligand) | 0.52 nM | 0.7 | 6.6 nM | 0.8
E46A IGF-1 (G1S-A70V background) on phage (from UniProt P69168 267-424) (ligand) | 0.94 nM | 1.3 | 7.9 nM | 1
S69A IGF-1 (G1S-A70V background) on phage (from UniProt P69168 267-424) (ligand) | 0.71 nM | 1.2 | 12.8 nM | 1.6
T41A IGF-1 (G1S-A70V background) on phage (from UniProt P69168 267-424) (ligand) | 0.43 nM | 0.6 | 13.7 nM | 1.7
T4A IGF-1 (G1S-A70V background) on phage (from UniProt P69168 267-424) (ligand) | 0.8 nM | 1.1 | 19.4 nM | 2.4
K68A IGF-1 (G1S-A70V background) on phage (from UniProt P69168 267-424) (ligand) | 0.76 nM | 1 | 10.5 nM | 1.3
G7A IGF-1 (G1S-A70V background) on phage (from UniProt P69168 267-424) (ligand) | 4.58 nM | 6.1 | > 1000 nM | > 100
D45A IGF-1 (G1S-A70V background) on phage (from UniProt P69168 267-424) (ligand) | 0.69 nM | 0.9 | 4.7 nM | 0.6
G42A IGF-1 (G1S-A70V background) on phage (from UniProt P69168 267-424) (ligand) | 0.53 nM | 0.7 | 15.7 nM | 1.9
